Results: article PMC8073056

Target: purified full-length Arpin (N-terminal 6xHis-tagged) (human) (UniProt Q7Z6K5)
Assay: SEC-MALS; purified Arpin and purified ARC4 of TNKS2 mixed; 15-mL KW-803 column (Shodex), dn/dc 0.183 mL/g

## ARC4 of TNKS2 (purified)
  stoichiometry N: 1
